Data from article PMC10725492 (2023).
No end group written: not given here. *: point of attachment. Palmitoyl = CCCCCCCCCCCCCCCC(=O)*

Target: recombinant APP N-terminal (18-612) fragment (UniProt P05067-4 18-612)
Assay: SPR

recombinant APP N-terminal (18-612) fragment, sequence (P05067 other isoform, or with tags, fused parts or gaps): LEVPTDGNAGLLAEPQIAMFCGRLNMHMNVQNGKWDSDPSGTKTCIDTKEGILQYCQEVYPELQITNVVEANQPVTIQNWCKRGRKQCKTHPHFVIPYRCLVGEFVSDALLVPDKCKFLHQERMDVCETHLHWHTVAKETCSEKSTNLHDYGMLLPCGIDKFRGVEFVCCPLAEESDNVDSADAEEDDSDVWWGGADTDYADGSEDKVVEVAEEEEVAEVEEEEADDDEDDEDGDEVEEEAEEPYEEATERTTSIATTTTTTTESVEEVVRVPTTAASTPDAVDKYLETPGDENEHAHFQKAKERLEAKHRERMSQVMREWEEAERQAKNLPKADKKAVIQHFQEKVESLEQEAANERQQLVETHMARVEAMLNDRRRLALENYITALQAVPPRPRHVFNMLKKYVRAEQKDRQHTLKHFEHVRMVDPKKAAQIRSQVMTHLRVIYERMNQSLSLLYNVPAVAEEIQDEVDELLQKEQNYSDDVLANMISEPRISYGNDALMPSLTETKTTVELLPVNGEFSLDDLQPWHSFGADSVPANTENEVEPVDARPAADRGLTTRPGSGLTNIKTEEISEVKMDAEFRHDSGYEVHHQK

KKKKKKLKVRLASHLRK(Palmitoyl)ELRKRLLRDA [AY51 peptide]
koff: 0.000356 s⁻¹
